The assay deals with FIII9–10 mutant Ala5, GST fusion protein (human). Nature of the assay: SPR. A general note: SPR reads the build-up and loss of mass on a sensor chip optically.

Here are results for 1 substance from PMC1626583.

Turning to “integrin α5β1 (from UniProt P05556 21-798) (receptor)”, the Kd (commonly the constant that tells how readily two partners part at equilibrium) worked out at 63 nM.
